Results on 2 molecules are retold here after paper PMC11681983 (Biochemistry Research International, 2024).

Holding throughout (conditions): both partners purified
The target of one assay is T1, VEGF (UniProt P15692 1-395).
T1 construct: vascular endothelial growth factor (VEGF); Probably VEGF165 (surmised); also called vascular endothelial growth factor
The assay can be described thus: ELISA; direct binding ELISA to IL-17A or VEGF, measured in duplicate, n = 2; who was coated is not told.

Assay [1] addresses T2, IL-17A (human, UniProt Q16552).
T2 construct: IL-17A
The assay can be described thus: SPR; Biacore, n = 3. A general note: Surface plasmon resonance follows binding to a sensor surface in real time, without labels.

The target of assay [2] is T2, IL-17A. The assay can be described thus: ELISA; ELISA-based assay of blocking the interaction of IL-17A with IL-17RA, in duplicate, n = 3.
Assay [3] deals with T2, IL-17A. The assay can be described thus: ELISA; direct binding ELISA to IL-17A or VEGF, measured in duplicate, n = 2; who was coated is not told. In general terms: An ELISA detects its analyte on a solid surface through an enzyme-linked reagent.

T2 sequence (Q16552 24-155): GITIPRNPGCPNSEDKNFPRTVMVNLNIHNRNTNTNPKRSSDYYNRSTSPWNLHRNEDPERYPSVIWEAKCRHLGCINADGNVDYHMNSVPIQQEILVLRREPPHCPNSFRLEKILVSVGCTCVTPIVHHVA
T1 sequence (P15692 whole entry): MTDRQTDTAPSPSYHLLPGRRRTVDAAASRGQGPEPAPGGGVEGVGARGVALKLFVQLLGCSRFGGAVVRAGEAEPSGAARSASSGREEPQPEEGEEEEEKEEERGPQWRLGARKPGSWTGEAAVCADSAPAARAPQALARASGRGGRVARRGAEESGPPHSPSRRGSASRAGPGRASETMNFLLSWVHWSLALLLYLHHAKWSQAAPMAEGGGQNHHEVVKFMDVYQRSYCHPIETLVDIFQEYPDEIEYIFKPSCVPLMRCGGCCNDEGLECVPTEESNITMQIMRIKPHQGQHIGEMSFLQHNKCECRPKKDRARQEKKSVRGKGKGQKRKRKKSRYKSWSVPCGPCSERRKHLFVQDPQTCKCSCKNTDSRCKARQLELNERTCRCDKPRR

B1: D2-Fc, a fusion protein with D2 fused to the N-terminus of an Fc (Fc fusion)
chain: SDTGRPFVEMYSEIPEIIHMTEGRELVIPCRVTSPNITVTLKKFPLDTLIPDGKRIIWDSRKGFIISNATYKEIGLLTCEATVNGHLYKTNYLTHRQTNTIID
modifications: Limits are not printed. VEGFR1 D2 is taken as S129-D231, the aflibercept / Flt1 D2 convention. The Fc carrier is omitted; two copies assume an Fc dimer. The printed clip site M464/Y465 (fusion …)
Broadly, the EC50 is the concentration at which the effect is half-maximal. For the molecule B1, the response with VEGF was half-maximal at 390 pM (EC50).

B2: bispecific fusion protein 17V05 (bispecific antibody, V domains shown)
VH: EVQLVESGGGLVQPGGSLRLSCAASGFTFSSFDMSWGRQAPGKRLEWVAFMSSGGSTYYPDSVKGRFTISRDNSKNTLYLQMNSLRAEDTAVYYCARGERYGSYWGQGTLVTVSS
VL: DIQMTQSPSSLSASVGDRVTITCKASDHINNWLAWYQQKPGKAPKLLISGATSLETGVPSRFSGSGSGTDYTLTISSLQPEDFATYYCQQYWSTPFTFGSGTKLEIK
notes: heavy chain of the clinical stage anti-IL-17A mAb 608 (Sunshine Guojian Pharmaceutical); linker, printed as (G4S) x 3; light chain of the anti-IL-17A mAb 608; Variant of 17V01 with M464A in D2; Two copies of D2, one at the C-terminus of each heavy chain of 608; also called bispecific anti-IL17/VEGF fusion trap; source: 293HEK cells, one-step purification with protein A chromatography (told of the …)
The term Kd denotes a measure of binding affinity in units of concentration. A low value points to a tighter complex. For orientation: IC50 means the point on the concentration scale where inhibition reaches its midpoint. Low values mean inhibition by little substance, high ones a need for much substance. B2: the affinity with IL-17A [1], expressed as Kd, was 18.4 pM. Also, in the assay with IL-17A [2], the IC50 was determined as 2770 pM. The EC50 in the assay with IL-17A [3] turned out to be 50 pM.
